Laboratory results taken from the nanobody polyreactivity screen of Harvey et al. (2022).

Assay: yeast display, Sf9 membrane polyspecificity reagent, FACS + sequencing; frameworks hold sequencing errors
In short: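 A synthetic nanobody library was expressed on Saccharomyces cerevisiae BJ5465 by galactose induction for 36–48 hours. The library was stained for 1 hour at 4 °C with 10% biotinylated, detergent-solubilized Sf9 membrane reagent and enriched with streptavidin microbeads before FACS. Low and high (top ~1%) gates were set on anti-HA fluorescence for expression and streptavidin fluorescence for reagent binding, and each polyreactivity label reflects the gate of origin.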

Sequence | polyreactivity (PSR sort gate)
QVQLVESGGGLVQAGGSLRLSCAASGRTFGPYAMGWYRQAPGKEREFVAAISYSGGSTYYADSVKGRFTISRDNAKNTVFLQMNSLKPEDTAVYYCAVDIDSNSGTRDYWGQGTQVTVSS | low polyreactivity
QVQLVESGGGLVQAGGSLRLSCAASGFTFDGYAMGWYRQAPGKERELVAAISDSGDSTYYADSVKGRFTISRDNAKNTVYLQMNSLKPEDTAVYYCNADAYGTPEFTSYAVRYDYWGQGTQVTVSS | low polyreactivity
QVQLVESGGGLVQAGGSLRLSCAASGSTFRYNAMGWYRQAPGKERELVAAITSSGSRTYYADSVKGRFTISRDNAKNTVYLQMNSLKPEDTAVYYCAAYGYYTKVTKYDYWGQGTQVNVSS | high polyreactivity
QVQLVESGGGLVQAGGSLRLSCAASGSIFQYNVKGWYRQEPGKEREFVADISSSGGSTYYADSVKGRFTISRDNAKNTVYLQMNSLKPEDTAVYYCNADPGYVFYRDEYWGQGTQVTVSS | low polyreactivity
QFHLVESGGGLVQAGGSLRLSCAASGSIFNEYAMGWYRQAPGKERELVAAITNISGRKYYADSVKGRFTISRDNAKNTVYLQMNSLKPEDTAVYYCNARRTYTRPYIHSVYNYYYWGQGTEVTVSS | high polyreactivity
QVQLVETGGGLVQAGGRLRLSCAASGSIFPDYDMGWYRQAPGKQRELVAAISSSGDSTYYADSVKGRFTISRDNAKNTVYLLMNSLKPEDTAVYYCAVDGTRSTSNGSEFTGYNYWGQGTQVTVSS | low polyreactivity
QVQLVESGGGLVQAGGSLRLSCAASGSIFIVYAMGWYRQAPGKERELVATISWSGGSTSYADSVKGRFTNSRDNAKNTVYLQMNSLKPEDTAFYYCNTLVRITEYDSWGQGTQVTVSS | low polyreactivity
QVQLVESGGGLVQAGGSVRLSCAASGSTIPPKVMGWYREAPGKEREWVAAISWGGSSTYYADSVKGRFPISRDHAKNTVFVQKNCLQREETAVYYCNAEYRSPVYWWYYEYDYWGQGTQVTVSA | high polyreactivity
QVQLVESGGGLVQAGGSLRLSCAASGSIFKIYAMGWYRQAPGKERELVASITGSGGSTYYADSVKGRFTISRDNAKNTVYLQMNSLKPEDTAVYYCAADVVRSNFYGTFLYDYDYWGQGTQVTVSS | low polyreactivity
QVQLVESGGGLVQAGGSLRLSCAASGRIFYRYVMGWYRQAPGKERELVAAISRGGGTNYADSVKGRFTISRDNAKNTVYLQMNSLKPEDTAVYYCAARGSPGAGYYWGQGTQVTVSS | high polyreactivity
QVQLVESGGGLVQAGGSLRLICAASGRTLYLYAMGWSRQAPGKEPELVAAIDWRGTSTYYADSVKGRFTISRDNAKNTVYLQMNSLKPEDTAFYYCNARFRSYLRWYQRDYWGQGTQVTVSS | low polyreactivity
QVQLLESGGGLVQAGGSLRLSCAASGRIFGYYTMGWYRQAPGKERELVAGITRRGGRTYYADSVKGRFTISRDNAKNTVYLEMNSLKPEDTAGYYCAVRSGVNFYYWGQGTQVTVSS | high polyreactivity
QVQLVESGGALVQAGGSLSLSCAASGFIFQPYAMGWYRQAPGKERELVAAITSRGGRTYYADSVMGRFTISRDNAKNTVYLQMNSLKPEDSAVYYCNADIYASEYYYWGQGTQVTVSS | low polyreactivity
QVQLVESGGGLVQAGGSLRLSCAASGYTFYANAMGWYRQAPGKEREFVASITWSGGSTYYPDSVKGRFTISRDNAKNTVYLQMNSLKPEDTAVYYCAAESWFKYDYWGQGTQETVSS | low polyreactivity
QVQLVESGGGLVQAGGSLRLSCAASGSIFDYNAMGWYRQAPGKEREFVAAISSSAGSTYYADSVKGRFTISRDNAKNTVYLQMNSLKPEDTAVYYCAARYQSPFRTYRFGMDYWGQGTQVTVSS | low polyreactivity
QVQHVESGGGLVQAGGSLRLSCAASGSTFSRYTMGWYRQAPGKERELVAGISRRGGITYYADSVKGRFTISRDNAKNTVYLQMNSLKPEDTAVYYCARTDVYWYGYPYDYWGQGTQVTVSS | high polyreactivity

Sequence | polyreactivity (PSR sort gate)
QVQLVESGGRLVQAGGSLRLSCAPSGFIFGDNGIGGSRQSPGKEMELVAGINRRSGTYYADSVKGRFTISRDNAKNTVYLLMNSLKREDTAVYYCAARLDAYQSGRYYYWGQGTQVTLSS | high polyreactivity
QVQLVESGGGLVQAGGSLPLSCAASGRTYRYYAMGWYRQAPGKERELVAAITRRSGNTNYADSVKGRFTISRDNAKNTVYLQINSLKPEDTALYYCAAVGAKGARYDYWGQGTQVTVSS | high polyreactivity
QVQLEESGGGLVQAGGSLRLSCAASGFTLDTYAMGWYRQAPGKERELVAAITSRGGTTYYADSVKGRFTISRDNAKNTVYLQMNSLKPEDTAVYYCNAVTKRWWYRTGYGYWGQGTQVTVSS | high polyreactivity
QVQLVESGGGLVQAGGSLRLSCAASGGTFISYAMGWYRQAPGKERELVAAISRGGSSTYYADSVKGRFTISRDNAKNTVYLQMNSLKPEDTAVYYCNKAYHRRDSEFGYWGQGTQVTVSS | high polyreactivity
QVQLVESGGGLVQAGGSLRLSCAASGRTLQWNAMGWYRQAPGKERELVATISSGGSTKYADSVKGRFTISRDNAKNTVYLQMNSLKPEDTAVYYCNAQPFGMYYHRYYYWGQGTQVTVSS | low polyreactivity
QVQLVESGGGLVQAGGSLRLSCAASGRIFGSYAMGWYRQAPGKERELVAAISWRGTSTYYADSVKGRFTISRDNAKNTVYLQMNSLIPEDTAVYYCAARGLWPYDYWGQGSQVTVSS | low polyreactivity
QVQLVESGGGLVQAGGSLRLSCAASGRIFPYYAMGWYRQAPGKERELVAAITQGGGRTYYADSVKGRFTISRDNAKNTVYLQMNSLKPEDTAVYYCAKRFTIRALLLRWADYDYWGQGTQVTVSS | low polyreactivity
QVQLVESGGGLVQAGGSLRLSCAASGSTFFPNGMGWYRQAPGKERELVAAITQDGGSTYYADSVKGRFTISRDNAKNTVYLQMNSLKPEDTAVYYCAASAGPYYEYGYWGQGTQVTVSS | low polyreactivity
QVQLVESGGGLVQAGGSLRLSCAASGSTFRRNAMGWYRQAPGKERELVAAITWRGGSTSYADSVKGRFTISRDNAKNTVYLQMNSLKPEDTGVYYCAAVKGHSQVLSYGYWGQGTQVTVSS | low polyreactivity
QVQLVESGGGLVQAGGSLRLSCAASGNIFEYYAMGWYRKAPGKERELVATITSGGSTNYADSVKGRFTISRDNAKNTVYLQMNSLKPEDTAVYYCNADIISVSVYYFIVEYDYWGQGTQVTVSS | low polyreactivity
QVQLVESGGGLVQAGGSLRLICAASGNIFTTYAMGWYRQAPGKERELVAAISRTGGRTSYADSVKGRFTISRDNAKNTVYLQMNSLKPEDTAVYYCAAVPTVRPSAPRARILSDYWGQGTQVTVSS | high polyreactivity
QVQLVESGGGLVQAGGSLRLSCAASGSTFQYYDMGWYRQAPGKERELVASITGSGDSTYYADSVKGRFTISRDNAKNTVYLQMNSLKPEDSAVYYCAAQNTWSGDYDYWGQGTQVTVSS | low polyreactivity
QVLLVESGVGLVQAGGSLRLSCAASGRIFKLYAMGWYRQAPGKERELVAAITRRGGSTSYADSVKGRFTISRDNAKNTVYLQMNSLKPEDTAVYYCAASYTGRTVVQGYEYWGQGTQVTVSS | high polyreactivity
QVQLVESGGGLVQAGGSLRLSCAASGSIFYYNAMGWFRQAGGKERELVAALSWSGGSTYYADSVKGRYTISRDNATNTVSLQMNSLKPEETAVYYCNAVGWYTYFSGSRKYNSWGQGTQVTVSS | low polyreactivity
QVQLVESGGGLVQAGGSLRLSCAASGYIFGVYVMGSYRQAPGKERELVAAITRGGGNTYYADSVKGRFTISRDNAKNSVYLQMNSLKPEDTAVYYCAARSLKSLSRYYYWGQGTQVTVSS | high polyreactivity
